The source of these data is paper PMC5460842.

The target of the test is FLAG-EGFR incorporated into nanolipoprotein particles (EGFR-NLP) (not stated ("mammalian")) (UniProt P00533). Description: BLI; competition with biotinylated EGF on sensor, 100 nM EGFR-NLP; given as EC50. Background: Biolayer interferometry detects binding as a change in optical thickness at a sensor tip.

A word on the IC50: it is the concentration that gives 50% inhibition. The low end stands for greater potency, the high end for weaker potency.

Turning to cetuximab, the IC50 stood at 5.87 nM.
